Source: the supplement of paper PMC9732359
± gives the uncertainty stated by the source.

Test: protein stability index of a GFP-peptide fusion (yeast GPS) (PSI 1-4); higher = more stable; sorted into four equal gates, so the index is relative within each strain
Method in brief: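 Yeast carrying a pooled library were grown to mid-log phase in leucine-free medium. Each library plasmid expresses Cherry and has a tiled 17-residue yeast protein peptide fused downstream of GFP. Cells were sorted into four equal gates by GFP/Cherry ratio, and plasmids from each gate were PCR-amplified, Illumina-sequenced and assigned to strains by barcode. Summing, across gates, the read frequency times the gate number gave each peptide's protein stability index.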

Sequence	protein stability index (doa10∆)	protein stability index (pdr5∆)	protein stability index (san1∆)	protein stability index (ubr1∆)
PYQHPPNIFPNLTYYNE [ITC1]	2.68 ± 0.058	2.83 ± 0.045	2.66 ± 0.045	2.76 ± 0.039
YMDKAKQYDNRITKSNE [LRP1]	3.08 ± 0.063	2.91 ± 0.056	2.97 ± 0.057	2.94 ± 0.074
QAPFSTSTKDKNSSTSN [MED1]	3.11 ± 0.062	3.24 ± 0.068	3.12 ± 0.054	3.09 ± 0.048
LIGRPPLLVPGMTPCTV [FAS1]	1.32 ± 0.071	1.82 ± 0.079	1.81 ± 0.11	2.15 ± 0.06
KRPRSRTLTAVHDKILE [RPS7A]	2.06 ± 0.054	2.13 ± 0.052	2.25 ± 0.064	1.88 ± 0.041
MTTSAVSPTVGKLFSDI [YIL149C/MLP2]	3.1 ± 0.073	3.33 ± 0.064	3.24 ± 0.044	3.16 ± 0.036
QRARDQDSIDISIKDNK [GAL11]	3.25 ± 0.1	3.12 ± 0.12	3.31 ± 0.086	3.13 ± 0.086
MKPEVEQELAHILLTEL [FAS2]	3.006 ± 0.028	2.988 ± 0.028	2.753 ± 0.025	2.722 ± 0.024
VRGGNIEIMGILMGFTL [RRI1]	2.32 ± 0.074	2.56 ± 0.092	2.31 ± 0.16	2.9 ± 0.096
ITDKGTVDGRLYQLFKT [YJL039C/NUP192]	3.19 ± 0.11	3.46 ± 0.097	3.3 ± 0.069	3.46 ± 0.094
DDEHNPTIVGGLYYQRP [AAR2]	2.66 ± 0.053	2.56 ± 0.039	2.62 ± 0.036	2.96 ± 0.04
DAVEGVSECIILGQTMS [RPO31]	1.7 ± 0.21	1.46 ± 0.077	1.45 ± 0.12	1.56 ± 0.13
ELLSMGNAKESKALLRE [SRP72]	2.98 ± 0.12	2.81 ± 0.21	2.91 ± 0.19	3.13 ± 0.16
DLQRLKPLGLDRYGNRY [ITC1]				3.05 ± 0.13
DRVKVIECFKPGDIVRA [CSL4]	2.66 ± 0.13	2.39 ± 0.14	2.1 ± 0.18	2.36 ± 0.16
SMKMELLKKELLTIEPK [SMC2]	2.85 ± 0.081	2.69 ± 0.064	2.8 ± 0.07	2.61 ± 0.053
QTFGVDILAKLFSLEKP [SWI1]	2.81 ± 0.063	2.52 ± 0.061	2.58 ± 0.058	2.51 ± 0.046
SIAEEIPIAIVLKACGI [RET1]	1.61 ± 0.056	1.49 ± 0.049	1.31 ± 0.089	1.66 ± 0.049
NDFTTKLINIKKFDISN [MED1]	1.67 ± 0.08	1.47 ± 0.096	1.56 ± 0.28	2.28 ± 0.27
KDPVDFVRQAAMIALSM [RPN2]	1.42 ± 0.082	2.21 ± 0.14	1.81 ± 0.17	1.97 ± 0.13
KYLPHAILKLLENMPHP [PRP8]	2 ± 0.081	1.46 ± 0.056	1.67 ± 0.1	1.61 ± 0.042
PGPYPNEQAARAANQGA [CYT1]	2.35 ± 0.053	2.68 ± 0.045	2.33 ± 0.059	2.3 ± 0.05
QQSNKLHCCIQLLMGDI [RPN3]	1.72 ± 0.045	1.99 ± 0.068	2 ± 0.064	1.84 ± 0.054
REASKDNVDFILSNVDL [RPB3]	3.49 ± 0.1	3.3 ± 0.085	3.38 ± 0.061	3.32 ± 0.073
PEDLNSLYIYYLIKLLG [SIR2]	2.07 ± 0.053	2.15 ± 0.05	2.18 ± 0.064	1.95 ± 0.056
INVDNDPFFAQSEDLSH [YML103C/NUP188]	3.15 ± 0.055	3.08 ± 0.056	3.15 ± 0.044	3.05 ± 0.046
